Read-outs that look alike come from different tables or passages of the source.
Key:
[1] = target: T1, human interleukin-2 (hIL2) (human, UniProt P60568 21-153); assay: FACS on NKL cells loaded with recombinant hIL2
T1 construct: mature; The two home-made supplies carry a C-terminal hexahistidine tag, and the E. coli one also an N-terminal Met; also called recombinant human hIL2; hIL2 antigen

[2] = target: T1, human interleukin-2 (hIL2); assay: cell-based or functional assay
[3] = target: T2, human IL2 receptor on NKL cells (human, UniProt P01589 22-272; P14784 27-551; P31785 23-369); assay: FACS on hIL2-deprived NKL cells without hIL2; fluorescence-labeled goat anti-human IgG detection
T2 construct: whole, on cells; also called hIL2 receptor; IL2 receptor component(s)
T2 sequence (looked up) 1: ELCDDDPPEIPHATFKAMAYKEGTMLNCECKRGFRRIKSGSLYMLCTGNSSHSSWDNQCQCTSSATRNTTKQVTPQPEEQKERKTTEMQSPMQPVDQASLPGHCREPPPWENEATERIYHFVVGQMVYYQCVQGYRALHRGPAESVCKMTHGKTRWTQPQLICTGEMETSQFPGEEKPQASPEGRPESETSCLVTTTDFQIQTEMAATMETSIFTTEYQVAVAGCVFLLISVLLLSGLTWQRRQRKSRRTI
T2 sequence (looked up) 2: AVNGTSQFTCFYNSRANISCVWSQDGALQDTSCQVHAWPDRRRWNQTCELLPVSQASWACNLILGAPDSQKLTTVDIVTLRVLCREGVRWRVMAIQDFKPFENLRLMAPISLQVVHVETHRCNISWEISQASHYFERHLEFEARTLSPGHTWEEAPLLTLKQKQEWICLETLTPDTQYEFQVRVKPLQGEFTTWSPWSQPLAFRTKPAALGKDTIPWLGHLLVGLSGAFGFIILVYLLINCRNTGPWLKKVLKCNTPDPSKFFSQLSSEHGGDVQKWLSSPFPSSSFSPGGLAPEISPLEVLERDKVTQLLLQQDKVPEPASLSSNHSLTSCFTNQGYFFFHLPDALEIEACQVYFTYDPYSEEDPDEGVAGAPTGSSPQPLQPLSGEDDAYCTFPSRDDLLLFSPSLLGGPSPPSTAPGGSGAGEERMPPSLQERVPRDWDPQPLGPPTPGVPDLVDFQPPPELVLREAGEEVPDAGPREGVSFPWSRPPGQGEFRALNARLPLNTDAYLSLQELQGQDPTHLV
T2 sequence (looked up) 3: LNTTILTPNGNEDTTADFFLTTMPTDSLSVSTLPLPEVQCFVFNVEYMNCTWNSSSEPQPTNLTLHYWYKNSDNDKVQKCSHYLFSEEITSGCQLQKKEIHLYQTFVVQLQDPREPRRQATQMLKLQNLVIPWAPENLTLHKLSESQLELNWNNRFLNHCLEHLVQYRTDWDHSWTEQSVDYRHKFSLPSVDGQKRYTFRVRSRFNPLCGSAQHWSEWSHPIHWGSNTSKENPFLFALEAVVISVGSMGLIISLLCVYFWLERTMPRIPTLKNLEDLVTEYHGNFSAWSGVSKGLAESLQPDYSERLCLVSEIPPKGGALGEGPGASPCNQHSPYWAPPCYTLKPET

[4] = target: T1, human interleukin-2 (hIL2); assay: Cell Surface (binding to cell surface-associated hIL2), method not described; Cell Surface, not BiaCore
[5] = target: T1, human interleukin-2 (hIL2); assay: cell-based or functional assay; remark: listed apart in the source
[6] = target: T1, human interleukin-2 (hIL2); assay: BiaCore, format not described
[7] = target: T3, Proleukin (formulated recombinant hIL2, expressed in E. coli), PEG-biotinylated (human, UniProt P60568 22-153, PEG-biotinylated (site not stated)); assay: ELISA: PEG-biotinylated Proleukin on streptavidin plate, 293 cell supernatant antibody, anti-human IgG-HRP, ABTS, absorbance at 405 nm
T3 construct: also called PEG-biotinylated Proleukin; hIL2 antigen
T3 sequence (P60568 other isoform, or with tags, fused parts or gaps limits assumed): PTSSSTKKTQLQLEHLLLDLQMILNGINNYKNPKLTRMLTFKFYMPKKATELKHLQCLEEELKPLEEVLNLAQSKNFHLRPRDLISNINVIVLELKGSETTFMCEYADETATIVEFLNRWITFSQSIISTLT

[8] = target: T3, Proleukin (formulated recombinant hIL2, …); assay: as above; remark: listed apart in the source
[9] = target: T3, Proleukin (formulated recombinant hIL2, …); assay: as above; remark: listed apart in the source

T1 sequence (P60568 21-153): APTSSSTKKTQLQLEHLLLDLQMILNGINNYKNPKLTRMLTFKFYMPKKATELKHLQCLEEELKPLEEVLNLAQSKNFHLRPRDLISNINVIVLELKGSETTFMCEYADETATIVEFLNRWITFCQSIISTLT

B1: mAb202 (commercially available from R&D Systems) (antibody, V domains shown)
VH: DVRLVESGGGLVKPGGSLKLSCAAYGFTFSSYTLAWVRQTPEKRLEWVAAIDSSSYTYSPDTVRGRFTISRDNAKNTLYLQMSSLKSEDTAMYYCTRDSNWDALDYWGQGTSVIVSS
VL: DIVMTQSQKFMSTSVGDRVSVTCKASQNVGTNVGWYQQKPGQSPKALIYSASFRYSGVPDRFTGSGSGTDFSLTISNVKSEDLAEYFCQQYYTYPYTFGGGTKLEIK
notes: Mouse monoclonal antibody; also called original mAb; parental mAb202
- binding result [1]: binds

B2: Anti-IL2 (humanized anti-IL2 IgG1 antibody) (antibody, V domains shown)
VH: EVQLVESGGGLVQPGGSLRLSCAASGFTFSSYTLAWVRQAPGKGLEWVAAIDSSSYTYSPDTVRGRFTISRDNAKNSLYLQMNSLRAEDTAVYYCARDSNWDALDYWGQGTTVTVSS
VL: DIQMTQSPSSLSASVGDRVTITCKASQNVGTNVGWYQQKPGKAPKALIYSASFRYSGVPSRFSGSGSGTDFTLTISSLQPEDFATYYCQQYYTYPYTFGGGTKVEIKR
notes: IgG1; Its VL carries KAPKA in framework 2
- IC50, IL2-dependent proliferation of primary human NK cells (donor shown) [2]: ~0.3 nM
- IC50 of IL2-dependent CD124 cell surface expression on CTLL-2 cells [2]: ~0.33 nM
- binding result [3]: no binding
- Kd [4]: 2.5 nM
- IC50, IFN-gamma production by Human NK Cells [5]: 0.13 nM
- IC50, Proliferation of Human Primary NK Cells [5]: 0.1 nM
- Kd [6]: 0.68 nM

B3: HMH + hHC (VL with human frameworks 1 and 3, mouse framework 2) (antibody, V domains shown)
VH: EVQLVESGGGLVQPGGSLRLSCAASGFTFSSYTLAWVRQAPGKGLEWVAAIDSSSYTYSPDTVRGRFTISRDNAKNSLYLQMNSLRAEDTAVYYCARDSNWDALDYWGQGTTVTVSS
VL: DIQMTQSPSSLSASVGDRVTITCKASQNVGTNVGWYQQKPGQSPKALIYSASFRYSGVPSRFSGSGSGTDFTLTISSLQPEDFATYYCQQYYTYPYTFGGGTKLEIK
notes: Human IgG1 and human Ckappa
- EC50 (read off the curve) [7]: ~0.06 mg/L

B4: MHM + hHC (VL with human framework 2, mouse frameworks 1 and 3) (antibody, human IgG1, V domains shown)
VH: EVQLVESGGGLVQPGGSLRLSCAASGFTFSSYTLAWVRQAPGKGLEWVAAIDSSSYTYSPDTVRGRFTISRDNAKNSLYLQMNSLRAEDTAVYYCARDSNWDALDYWGQGTTVTVSS
VL: DIVMTQSQKFMSTSVGDRVSVTCKASQNVGTNVGWYQQKPGKAPKLLIYSASFRYSGVPDRFTGSGSGTDFSLTISNVKSEDLAEYFCQQYYTYPYTFGGGTKLEIK
notes: Human IgG1 and human Ckappa
- EC50 (read off the curve) [7]: ~0.06 mg/L

B5: cLC + hHC (chimeric light chain with humanized heavy chain) (antibody, human IgG1, V domains shown)
VH: EVQLVESGGGLVQPGGSLRLSCAASGFTFSSYTLAWVRQAPGKGLEWVAAIDSSSYTYSPDTVRGRFTISRDNAKNSLYLQMNSLRAEDTAVYYCARDSNWDALDYWGQGTTVTVSS
VL: DIVMTQSQKFMSTSVGDRVSVTCKASQNVGTNVGWYQQKPGQSPKALIYSASFRYSGVPDRFTGSGSGTDFSLTISNVKSEDLAEYFCQQYYTYPYTFGGGTKLEIK
notes: Human IgG1 C1, C2, C3 and human Ckappa; Tested as 293 cell supernatant; also called cLH+hHC
- EC50 (read off the curve) [8]: ~0.1 mg/L

B6: HMM + hHC (VL with human framework 1, mouse frameworks 2 and 3) (antibody, V domains shown)
VH: EVQLVESGGGLVQPGGSLRLSCAASGFTFSSYTLAWVRQAPGKGLEWVAAIDSSSYTYSPDTVRGRFTISRDNAKNSLYLQMNSLRAEDTAVYYCARDSNWDALDYWGQGTTVTVSS
VL: DIQMTQSPSSLSASVGDRVTITCKASQNVGTNVGWYQQKPGQSPKALIYSASFRYSGVPDRFTGSGSGTDFSLTISNVKSEDLAEYFCQQYYTYPYTFGGGTKLEIK
notes: Human IgG1 and human Ckappa
- EC50 (read off the curve) [7]: ~0.06 mg/L

B7: hLC_KAPKA + hHC (antibody, V domains shown)
VH: EVQLVESGGGLVQPGGSLRLSCAASGFTFSSYTLAWVRQAPGKGLEWVAAIDSSSYTYSPDTVRGRFTISRDNAKNSLYLQMNSLRAEDTAVYYCARDSNWDALDYWGQGTTVTVSS
VL: DIQMTQSPSSLSASVGDRVTITCKASQNVGTNVGWYQQKPGKAPKALIYSASFRYSGVPSRFSGSGSGTDFTLTISSLQPEDFATYYCQQYYTYPYTFGGGTKVEIK
notes: Human IgG1 and human Ckappa
- EC50 (read off the curve) [9]: ~0.05 mg/L

B8: hLC + hHC (humanized light chain with humanized heavy chain) (antibody, human IgG1, V domains shown)
VH: EVQLVESGGGLVQPGGSLRLSCAASGFTFSSYTLAWVRQAPGKGLEWVAAIDSSSYTYSPDTVRGRFTISRDNAKNSLYLQMNSLRAEDTAVYYCARDSNWDALDYWGQGTTVTVSS
VL: DIQMTQSPSSLSASVGDRVTITCKASQNVGTNVGWYQQKPGKAPKLLIYSASFRYSGVPSRFSGSGSGTDFTLTISSLQPEDFATYYCQQYYTYPYTFGGGTKVEIK
notes: Human IgG1 C1, C2, C3 and human Ckappa; Tested as 293 cell supernatant; also called hLH+hHC
- EC50 (read off the curve) [8]: ~0.2 mg/L

B9: MMH + hHC (VL with human framework 3, mouse frameworks 1 and 2) (antibody, V domains shown)
VH: EVQLVESGGGLVQPGGSLRLSCAASGFTFSSYTLAWVRQAPGKGLEWVAAIDSSSYTYSPDTVRGRFTISRDNAKNSLYLQMNSLRAEDTAVYYCARDSNWDALDYWGQGTTVTVSS
VL: DIVMTQSQKFMSTSVGDRVSVTCKASQNVGTNVGWYQQKPGQSPKALIYSASFRYSGVPSRFSGSGSGTDFTLTISSLQPEDFATYYCQQYYTYPYTFGGGTKLEIK
notes: Human IgG1 and human Ckappa
- EC50 (read off the curve) [7]: ~0.06 mg/L

Source: patent US20080317746A1 (MICROMET, published 2008)
